Results published in patent US20240201167A1 (ALBERT EINSTEIN COLLEGE OF MEDICINE, published 2024).
Where “and” joins values, the source holds several entries; their conditions need not be identical. Equal values may be shown once.

Assays:
FAS expressed on cells = target: T1, FAS expressed on cells (human, UniProt P25445 26-335); assay: cell-cell screen, flow cytometry
T1 construct: whole, on cells
T1 sequence (looked up): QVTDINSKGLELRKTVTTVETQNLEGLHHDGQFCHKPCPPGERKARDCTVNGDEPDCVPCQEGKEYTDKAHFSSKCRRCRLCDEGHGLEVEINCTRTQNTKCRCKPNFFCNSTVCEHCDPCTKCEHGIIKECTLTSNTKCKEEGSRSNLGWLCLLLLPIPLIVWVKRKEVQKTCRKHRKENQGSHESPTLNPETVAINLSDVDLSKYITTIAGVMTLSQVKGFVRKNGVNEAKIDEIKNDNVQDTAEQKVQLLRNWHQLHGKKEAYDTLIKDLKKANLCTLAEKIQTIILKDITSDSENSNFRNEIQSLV
Procedure: (§1) As illustrated, cells were transfected with expression cassettes expressing labeled receptors or labeled ligands, receptor-expressing cells were mixed with ligand-expressing cells and cell-to-cell binding was monitored by detecting the labels associated with the receptor and the ligand. […] Binding was detected using an anti-mIgG2A ab and flow cytometry. The binding curves were fit and the Bmax, EC50, and hill coefficient were calculated using the equation Y=Bmax*Xh/(Kdh+Xh).

TNFR2 expressed on cells = target: T2, TNFR2 expressed on cells (human, UniProt P20333 23-461); assay: cell-cell screen, flow cytometry
T2 construct: whole, on cells
T2 sequence (looked up): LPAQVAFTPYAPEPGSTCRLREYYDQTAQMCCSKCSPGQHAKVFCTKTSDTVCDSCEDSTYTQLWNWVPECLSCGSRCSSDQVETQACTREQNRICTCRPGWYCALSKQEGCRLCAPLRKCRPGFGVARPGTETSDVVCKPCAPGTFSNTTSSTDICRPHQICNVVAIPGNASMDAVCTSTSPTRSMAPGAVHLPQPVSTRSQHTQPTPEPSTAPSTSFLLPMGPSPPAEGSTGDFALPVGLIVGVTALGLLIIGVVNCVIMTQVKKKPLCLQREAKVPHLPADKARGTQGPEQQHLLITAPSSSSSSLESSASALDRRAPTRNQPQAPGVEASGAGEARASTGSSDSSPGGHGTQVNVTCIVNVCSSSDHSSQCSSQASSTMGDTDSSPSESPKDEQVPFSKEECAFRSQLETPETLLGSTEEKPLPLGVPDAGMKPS
Procedure: as §1

[1] = target: T3, SorCS1 expressed on cells (UniProt Q8WY21 34-1168, limits assumed); assay: cell-cell binding
T3 construct: whole, on cells
T3 sequence (looked up): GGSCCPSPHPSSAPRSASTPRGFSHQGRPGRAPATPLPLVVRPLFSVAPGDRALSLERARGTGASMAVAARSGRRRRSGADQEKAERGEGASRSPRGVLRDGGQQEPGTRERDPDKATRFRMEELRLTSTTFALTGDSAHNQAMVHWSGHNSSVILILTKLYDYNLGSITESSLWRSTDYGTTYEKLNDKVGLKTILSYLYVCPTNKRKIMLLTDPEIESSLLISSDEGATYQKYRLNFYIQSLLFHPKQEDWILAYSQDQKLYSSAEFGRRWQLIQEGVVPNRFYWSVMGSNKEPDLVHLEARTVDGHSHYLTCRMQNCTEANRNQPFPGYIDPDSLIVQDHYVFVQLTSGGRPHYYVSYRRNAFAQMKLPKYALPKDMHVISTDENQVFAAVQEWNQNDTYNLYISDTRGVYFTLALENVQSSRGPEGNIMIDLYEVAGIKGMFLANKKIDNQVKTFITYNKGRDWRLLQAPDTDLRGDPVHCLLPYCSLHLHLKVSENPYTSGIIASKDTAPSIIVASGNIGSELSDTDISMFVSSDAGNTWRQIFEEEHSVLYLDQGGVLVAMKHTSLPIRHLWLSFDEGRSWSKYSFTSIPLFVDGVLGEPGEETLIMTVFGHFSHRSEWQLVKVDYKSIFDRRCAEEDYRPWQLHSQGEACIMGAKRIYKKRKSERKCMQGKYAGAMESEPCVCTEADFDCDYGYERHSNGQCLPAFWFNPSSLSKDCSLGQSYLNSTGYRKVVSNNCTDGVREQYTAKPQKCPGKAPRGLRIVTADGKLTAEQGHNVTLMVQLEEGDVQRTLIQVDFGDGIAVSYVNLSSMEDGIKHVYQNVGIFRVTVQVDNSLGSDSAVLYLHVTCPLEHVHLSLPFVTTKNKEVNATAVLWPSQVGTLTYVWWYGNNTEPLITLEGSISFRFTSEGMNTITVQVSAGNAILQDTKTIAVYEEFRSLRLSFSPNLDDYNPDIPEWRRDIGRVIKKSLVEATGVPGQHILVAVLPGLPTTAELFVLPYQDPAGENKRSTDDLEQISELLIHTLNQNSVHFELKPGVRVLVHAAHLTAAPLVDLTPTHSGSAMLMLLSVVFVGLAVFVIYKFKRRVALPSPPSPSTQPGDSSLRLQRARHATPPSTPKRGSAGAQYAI

[2] = target: T4, Sortilin expressed on cells (UniProt Q99523 78-831, limits assumed); assay: cell-cell binding
T4 construct: whole, on cells

[3] = target: T5, SorCS2 expressed on cells (UniProt Q96PQ0 51-1159, limits assumed); assay: cell-cell binding
T5 construct: whole, on cells
T5 sequence (Q96PQ0 51-1159 limits assumed): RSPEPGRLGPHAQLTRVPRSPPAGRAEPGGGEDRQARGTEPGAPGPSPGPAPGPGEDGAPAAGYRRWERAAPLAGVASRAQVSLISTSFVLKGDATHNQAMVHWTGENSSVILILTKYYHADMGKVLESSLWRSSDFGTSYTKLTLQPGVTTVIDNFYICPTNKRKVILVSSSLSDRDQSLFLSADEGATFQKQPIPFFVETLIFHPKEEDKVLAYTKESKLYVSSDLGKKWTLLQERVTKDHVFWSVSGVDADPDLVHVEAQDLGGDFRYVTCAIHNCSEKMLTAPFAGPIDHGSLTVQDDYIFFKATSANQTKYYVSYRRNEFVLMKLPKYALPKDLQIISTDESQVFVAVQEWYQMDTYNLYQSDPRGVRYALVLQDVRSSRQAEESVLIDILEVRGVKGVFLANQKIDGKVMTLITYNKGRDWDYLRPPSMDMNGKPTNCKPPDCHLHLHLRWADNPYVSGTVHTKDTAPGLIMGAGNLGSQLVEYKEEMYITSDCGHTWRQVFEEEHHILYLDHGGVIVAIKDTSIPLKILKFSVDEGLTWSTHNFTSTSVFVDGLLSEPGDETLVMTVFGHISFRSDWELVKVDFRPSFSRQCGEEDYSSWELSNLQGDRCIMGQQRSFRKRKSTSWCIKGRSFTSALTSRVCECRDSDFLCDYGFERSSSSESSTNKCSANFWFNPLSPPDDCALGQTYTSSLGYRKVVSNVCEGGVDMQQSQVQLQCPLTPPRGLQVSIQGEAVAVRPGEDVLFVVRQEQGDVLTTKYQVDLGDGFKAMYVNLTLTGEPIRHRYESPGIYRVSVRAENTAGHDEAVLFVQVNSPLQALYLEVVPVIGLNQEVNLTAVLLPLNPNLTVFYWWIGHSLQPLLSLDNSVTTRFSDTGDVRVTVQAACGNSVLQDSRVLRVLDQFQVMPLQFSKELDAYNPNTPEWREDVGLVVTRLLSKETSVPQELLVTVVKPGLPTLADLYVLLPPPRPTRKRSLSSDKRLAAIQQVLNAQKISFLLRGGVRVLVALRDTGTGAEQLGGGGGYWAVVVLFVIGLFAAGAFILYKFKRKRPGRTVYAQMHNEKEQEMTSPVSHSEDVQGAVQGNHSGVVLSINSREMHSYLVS

[4] = target: T6, SorCS3 expressed on cells (UniProt Q9UPU3 134-1222, limits assumed); assay: cell-cell binding
T6 construct: whole, on cells
T6 sequence (looked up): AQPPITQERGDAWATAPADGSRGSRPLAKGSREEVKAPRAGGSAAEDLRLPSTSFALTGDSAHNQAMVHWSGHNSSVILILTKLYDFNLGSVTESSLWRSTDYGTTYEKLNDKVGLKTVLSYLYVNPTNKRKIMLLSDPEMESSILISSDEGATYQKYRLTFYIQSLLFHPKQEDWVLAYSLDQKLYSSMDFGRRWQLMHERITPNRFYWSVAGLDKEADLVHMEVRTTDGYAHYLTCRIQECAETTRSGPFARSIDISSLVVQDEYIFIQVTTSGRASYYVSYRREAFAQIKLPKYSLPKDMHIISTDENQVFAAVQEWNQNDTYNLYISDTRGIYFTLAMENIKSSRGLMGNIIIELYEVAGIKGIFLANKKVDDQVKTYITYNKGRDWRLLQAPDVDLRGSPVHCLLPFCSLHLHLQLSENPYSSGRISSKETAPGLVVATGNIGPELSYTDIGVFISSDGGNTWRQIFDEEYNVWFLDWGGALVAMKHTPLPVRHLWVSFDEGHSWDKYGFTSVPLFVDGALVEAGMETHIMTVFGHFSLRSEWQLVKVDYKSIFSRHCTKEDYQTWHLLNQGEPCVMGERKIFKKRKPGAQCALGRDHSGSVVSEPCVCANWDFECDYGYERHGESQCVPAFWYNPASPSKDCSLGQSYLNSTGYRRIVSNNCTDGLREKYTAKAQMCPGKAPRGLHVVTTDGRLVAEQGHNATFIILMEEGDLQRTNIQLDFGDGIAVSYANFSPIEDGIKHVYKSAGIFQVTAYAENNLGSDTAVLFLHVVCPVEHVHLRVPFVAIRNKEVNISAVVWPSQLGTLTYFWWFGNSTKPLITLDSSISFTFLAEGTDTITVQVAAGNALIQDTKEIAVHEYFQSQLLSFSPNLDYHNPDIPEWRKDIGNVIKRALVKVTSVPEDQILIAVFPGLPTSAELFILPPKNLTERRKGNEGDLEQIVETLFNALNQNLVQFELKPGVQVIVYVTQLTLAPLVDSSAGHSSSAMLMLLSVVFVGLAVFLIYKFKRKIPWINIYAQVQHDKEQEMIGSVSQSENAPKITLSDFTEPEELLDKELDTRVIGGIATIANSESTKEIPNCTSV

mouse p75NTR = target: T7, mouse p75NTR (mouse, UniProt Q9Z0W1 32-427); assay: cell-cell binding, flow cytometry
T7 construct: whole, on cells; also called mouse p75NTR-GFP; murine p75
T7 sequence (looked up): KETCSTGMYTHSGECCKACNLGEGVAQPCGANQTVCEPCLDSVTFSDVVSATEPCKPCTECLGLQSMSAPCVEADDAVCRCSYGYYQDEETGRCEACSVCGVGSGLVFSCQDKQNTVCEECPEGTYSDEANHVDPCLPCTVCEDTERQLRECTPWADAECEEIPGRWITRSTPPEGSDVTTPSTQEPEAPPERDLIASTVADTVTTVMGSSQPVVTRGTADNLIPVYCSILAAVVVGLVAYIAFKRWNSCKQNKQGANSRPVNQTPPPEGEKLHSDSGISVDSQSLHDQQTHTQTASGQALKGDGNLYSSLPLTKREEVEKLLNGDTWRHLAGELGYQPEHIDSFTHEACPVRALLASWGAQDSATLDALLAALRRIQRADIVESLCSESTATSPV

[5] = target: T8, human p75 neurotrophin receptor, full length, expressed on HEK 293 cells (Homo sapiens, UniProt P08138 29-427); assay: cell-cell binding, flow cytometry
T8 construct: Full-length human p75 with a cytosolic fluorescent tag (GFP); also called p75NTR; NGFR
T8 sequence: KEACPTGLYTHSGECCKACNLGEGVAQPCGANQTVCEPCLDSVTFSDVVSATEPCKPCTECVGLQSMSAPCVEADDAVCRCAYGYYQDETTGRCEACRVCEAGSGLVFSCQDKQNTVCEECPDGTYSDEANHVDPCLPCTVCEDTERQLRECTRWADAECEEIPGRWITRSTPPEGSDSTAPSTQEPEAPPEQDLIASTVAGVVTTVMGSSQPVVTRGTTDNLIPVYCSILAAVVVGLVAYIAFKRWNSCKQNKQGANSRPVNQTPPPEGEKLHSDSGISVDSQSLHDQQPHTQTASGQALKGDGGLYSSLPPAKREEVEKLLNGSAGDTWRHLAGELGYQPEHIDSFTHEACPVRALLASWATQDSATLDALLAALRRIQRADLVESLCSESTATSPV

[6] = target: T9, rat p75NTR expressed on cells (rat, UniProt P07174 30-425); assay: cell-cell binding, flow cytometry
T9 construct: whole, on cells; also called rat p75NTR-GFP; rodent p75NTR
T9 sequence (looked up): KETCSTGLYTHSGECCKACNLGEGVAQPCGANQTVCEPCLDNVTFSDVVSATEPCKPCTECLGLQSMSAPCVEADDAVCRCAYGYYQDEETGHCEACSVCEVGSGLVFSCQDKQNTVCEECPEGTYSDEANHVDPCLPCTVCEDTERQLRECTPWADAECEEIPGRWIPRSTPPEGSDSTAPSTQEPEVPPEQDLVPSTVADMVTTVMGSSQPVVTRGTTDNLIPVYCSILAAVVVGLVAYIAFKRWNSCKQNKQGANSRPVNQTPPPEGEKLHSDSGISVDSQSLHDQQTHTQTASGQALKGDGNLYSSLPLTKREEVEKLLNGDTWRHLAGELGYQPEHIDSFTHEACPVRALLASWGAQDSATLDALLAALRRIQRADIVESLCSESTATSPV

[7] = target: T10, human CTLA-4 expressed on HEK 293 cells (human, UniProt P16410 36-223); assay: Fc fusion titrated on CTLA-4-expressing cells, flow cytometry
T10 construct: whole, on cells; also called CTLA-4-GFP
T10 sequence (P16410 36-223): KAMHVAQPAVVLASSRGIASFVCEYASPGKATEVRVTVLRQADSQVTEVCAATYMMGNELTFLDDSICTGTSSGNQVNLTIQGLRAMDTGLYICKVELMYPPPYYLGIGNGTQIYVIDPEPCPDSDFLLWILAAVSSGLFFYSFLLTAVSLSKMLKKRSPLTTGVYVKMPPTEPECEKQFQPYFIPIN
Procedure: (§2) Three days post transfection cells were counted and diluted to 1×10⁶ cells/mL in 1×PBS 0.2% BSA, pH 7.4. Premixed solutions containing a final concentration of 1 μM Fc-fusion protein and 1.5 μM Alexa 647 goat anti-mouse secondary antibody (ThermoFisher, A-21235) were incubated on ice for 30 min. Subsequently, increasing amounts of the premixed solution was added to wells of a 96-well plate and the volume adjusted to 50 μL with 1×PBS and 100 μL of diluted cells (100,000 cells total) added to the wells. Binding was performed at room temperature for 1 hour, the cells washed 2× with 1×PBS 0.2% BSA by centrifugation and subsequently analyzed by Flow Cytometry on a SONY Spectral Analyzer (SA 3800). Gated live cells were sub-gated for GFP, and GFP-positive cells sub-gated for Alexa-647.

[8] = target: T11, human CD28 expressed on HEK 293 cells (human, UniProt P10747 19-220); assay: Fc fusion titrated on CD28-expressing cells, flow cytometry
T11 construct: whole, on cells; also called CD28-GFP
Procedure: as §2

[9] = target: T8, human p75 neurotrophin receptor, full …; assay: Fc fusion titrated on transfected cells, flow cytometry
Procedure: as §2

B1: human B7-1 (CD80), full length, expressed on HEK 293 cells (ligand)
chain: VIHVTYEVKEVATLSCGHNVSVEELAQTRIYWQKEKKMVLTMMSGDMNIWPEYKNRTIFDITNNLSIVILALRPSDEGTYECVVLKYEKDAFKREHLAEVTLSVKADFPTPSISDFEIPTSNIRRIICSTSGGFPEPHLSWLENGEELNAINTTVSQDPETELYAVSSKLDFNMTTNHSFMCLIKYGHLRVNQTFNWNTTKQEHFPDNLLPSWAITLISVNGIFVICCLTYCFAPRCRERRRNERL
notes: also called hB7-1; B7-1-mCherry
B1: no binding (FAS expressed on cells); no binding (TNFR2 expressed on cells); no binding [1]. B1: no binding [2]; no binding [3]; no binding [4].

B2: mouse B7-1 expressed on cells (ligand)
chain: VDEQLSKSVKDKVLLPCRYNSPHEDESEDRIYWQKHDKVVLSVIAGKLKVWPEYKNRTLYDNTTYSLIILGLVLSDRGTYSCVVQKKERGTYEVKHLALVKLSIKADFSTPNITESGNPSADTKRITCFASGGFPKPRFSWLENGRELPGINTTISQDPESELYTISSQLDFNTTRNHTIKCLIKYGDAHVSEDFTWEKPPEDPPDSKNTLVLFGAGFGAVITVVVIVVIIKCFCKHRSCFRRNEASRETNNSLTFGPEEALAEQTVFL
notes: Cytosolic mCherry tag; also called mouse B7-1-mCherry; rodent B7-1
B2: no binding (mouse p75NTR); no binding [5]; no binding [6].

B3: B7-1N82E-Fc (Fc fusion)
chain: VIHVTYEVKEVATLSCGHNVSVEELAQTRIYWQKEKKMVLTMMSGDMEIWPEYKNRTIFDITNNLSIVILALRPSDEGTYECVVLKYEKDAFKREHLAEVTLSVKADFPTPSISDFEIPTSNIRRIICSTSGGFPEPHLSWLENGEELNAINTTVSQDPETELYAVSSKLDFNMTTNHSFMCLIKYGHLRVNQTFNWNT
notes: also called recombinant mutant B7-1 N82E; B7-1 N82E Fc fusion protein; not shown: C-terminal deca-His-tagged Fc domain (mIgG2a-His10 or hIgG1-His10)
In the case of B3, the EC50 [7] is reported as ~9 nM and ~10 nM, the EC50 [8] is reported as ~9 nM and ~10 nM and the binding result [9] is reported as “no binding”.
